Patent publication US20140274782A1, “AFFINITY REAGENTS AND METHODS FOR DETECTION, PURIFICATION, AND PROTEOMIC ANALYSIS OF METHYLATED PROTEINS” (The Board of Trustees of the Leland Stanford Junior …, priority 2013, published 2014)

T1: G9a and GLP (Homo sapiens, UniProt Q96KQ7+Q9H9B1)
T1 sequence (Q96KQ7 2-1210 limits assumed): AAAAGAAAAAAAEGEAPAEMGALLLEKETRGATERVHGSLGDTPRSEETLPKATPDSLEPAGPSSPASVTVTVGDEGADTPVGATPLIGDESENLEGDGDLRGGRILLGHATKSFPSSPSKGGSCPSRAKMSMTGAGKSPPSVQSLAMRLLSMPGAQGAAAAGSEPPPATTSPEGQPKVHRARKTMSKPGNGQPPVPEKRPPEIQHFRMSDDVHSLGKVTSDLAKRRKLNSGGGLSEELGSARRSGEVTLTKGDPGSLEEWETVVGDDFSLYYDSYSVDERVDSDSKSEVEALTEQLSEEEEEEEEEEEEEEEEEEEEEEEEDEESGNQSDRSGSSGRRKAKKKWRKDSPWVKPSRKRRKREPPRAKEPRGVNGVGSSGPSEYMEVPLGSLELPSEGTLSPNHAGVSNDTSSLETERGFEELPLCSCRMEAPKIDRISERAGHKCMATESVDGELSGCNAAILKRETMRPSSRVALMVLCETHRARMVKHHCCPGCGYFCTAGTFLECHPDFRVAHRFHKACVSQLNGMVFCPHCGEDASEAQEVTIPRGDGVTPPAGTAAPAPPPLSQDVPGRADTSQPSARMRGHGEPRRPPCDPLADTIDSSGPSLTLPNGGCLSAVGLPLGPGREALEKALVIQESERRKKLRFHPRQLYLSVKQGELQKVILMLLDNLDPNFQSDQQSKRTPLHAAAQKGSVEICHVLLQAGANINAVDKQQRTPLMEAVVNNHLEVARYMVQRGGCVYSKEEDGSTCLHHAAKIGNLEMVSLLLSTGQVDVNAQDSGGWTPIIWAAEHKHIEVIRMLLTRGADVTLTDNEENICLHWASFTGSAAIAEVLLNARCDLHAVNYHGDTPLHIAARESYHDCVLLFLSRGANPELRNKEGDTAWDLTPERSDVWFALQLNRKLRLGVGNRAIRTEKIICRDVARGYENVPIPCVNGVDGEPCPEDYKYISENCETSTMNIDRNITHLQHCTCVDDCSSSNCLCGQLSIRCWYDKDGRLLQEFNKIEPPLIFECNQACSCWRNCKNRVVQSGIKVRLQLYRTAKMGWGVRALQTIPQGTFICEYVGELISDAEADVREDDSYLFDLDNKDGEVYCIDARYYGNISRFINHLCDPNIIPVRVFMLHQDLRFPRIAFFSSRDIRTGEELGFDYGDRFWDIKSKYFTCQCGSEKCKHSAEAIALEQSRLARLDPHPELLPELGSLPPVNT
T1 sequence (Q9H9B1 2-1298 limits assumed): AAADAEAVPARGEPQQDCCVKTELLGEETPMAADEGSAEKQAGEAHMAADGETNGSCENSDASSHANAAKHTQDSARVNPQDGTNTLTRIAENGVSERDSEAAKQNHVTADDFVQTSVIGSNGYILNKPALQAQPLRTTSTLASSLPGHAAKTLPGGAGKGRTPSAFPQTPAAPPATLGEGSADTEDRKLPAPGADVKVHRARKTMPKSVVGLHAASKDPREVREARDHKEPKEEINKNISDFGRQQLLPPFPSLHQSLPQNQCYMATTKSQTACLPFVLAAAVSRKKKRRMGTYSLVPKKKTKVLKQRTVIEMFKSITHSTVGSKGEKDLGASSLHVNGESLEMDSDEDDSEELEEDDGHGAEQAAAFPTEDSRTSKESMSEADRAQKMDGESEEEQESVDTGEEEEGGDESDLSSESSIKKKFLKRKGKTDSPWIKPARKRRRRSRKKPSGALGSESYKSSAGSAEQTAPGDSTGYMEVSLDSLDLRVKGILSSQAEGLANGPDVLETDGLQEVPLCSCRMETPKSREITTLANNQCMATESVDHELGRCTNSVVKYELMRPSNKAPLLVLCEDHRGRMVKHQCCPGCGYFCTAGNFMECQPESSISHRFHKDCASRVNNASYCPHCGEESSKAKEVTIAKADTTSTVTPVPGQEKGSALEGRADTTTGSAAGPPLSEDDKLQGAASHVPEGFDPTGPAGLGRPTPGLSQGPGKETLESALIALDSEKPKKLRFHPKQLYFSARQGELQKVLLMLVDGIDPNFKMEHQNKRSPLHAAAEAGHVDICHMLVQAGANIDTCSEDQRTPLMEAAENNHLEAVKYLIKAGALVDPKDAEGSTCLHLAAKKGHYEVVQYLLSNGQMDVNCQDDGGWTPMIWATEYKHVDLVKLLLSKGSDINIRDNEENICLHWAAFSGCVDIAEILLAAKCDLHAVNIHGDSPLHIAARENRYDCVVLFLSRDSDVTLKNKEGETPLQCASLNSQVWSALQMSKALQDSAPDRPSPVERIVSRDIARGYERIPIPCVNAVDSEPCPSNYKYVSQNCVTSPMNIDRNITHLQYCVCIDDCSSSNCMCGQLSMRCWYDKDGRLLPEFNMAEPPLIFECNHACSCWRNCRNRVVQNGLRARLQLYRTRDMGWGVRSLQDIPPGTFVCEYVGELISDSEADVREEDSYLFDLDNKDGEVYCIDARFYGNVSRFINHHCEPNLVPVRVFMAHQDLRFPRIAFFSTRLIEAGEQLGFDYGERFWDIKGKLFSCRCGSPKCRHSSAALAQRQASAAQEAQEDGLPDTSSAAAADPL


Legend:
[1] = target: T1, G9a and GLP; assay: Triple SILAC pull-down after UNC0638 treatment of 293T cells, DMSO/UNC0638 ratio of protein captured by 3×MBT; type: cell-based; parameters: endogenous in cells; host or cells: HEK 293T; settings: for Relative to UNC0638 UNC Heavy / Relative to UNC0638 UNC Light: SILAC ratio DMSO/UNC0638 of protein pulled down with 3xMBT; for Relative to UNC0638 UNC Heavy: UNC0638 in heavy SILAC media; for Relative to UNC0638 UNC Light: UNC0638 in light SILAC media; for Relative to UNC0638 Average: average of UNC Light and UNC Heavy experiments;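 for all read-outs here: mass spectrometry (Q-Exactive) SILAC quantitation, DMSO/UNC0638 ratio computed after subtracting 3×MBTD355N mutant pull-down background, only proteins with at least twofold 3×MBT over mutant signal considered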
[2] = test system: 3×MBT domain of L3MBTL1; assay: Triple SILAC pull-down, 3xMBT/3xMBTD355N ratio (cytoplasmic, nuclear and chromatin fractions of 293T cells); type: binding, human; settings: SILAC ratio, pull-down 3xMBT vs 3xMBTD355N; for 3xMBT/D355N UNC Heavy: experiment with UNC0638 in heavy SILAC media; for 3xMBT/D355N UNC Light: experiment with UNC0638 in light SILAC media;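 for all read-outs here: proteins quantified with MaxQuant, requiring at least two unique peptides and quantification in both label directions, normalized to the mean of proteins from a digested loading control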

Molecule	Relative to UNC0638 UNC Heavy [1]	Relative to UNC0638 UNC Light [1]	Relative to UNC0638 Average [1]	3xMBT/D355N UNC Heavy [2]	3xMBT/D355N UNC Light [2]
FTSJD2 (protein, UniProt Q8IYT2 1-770, looked up) Cap-specific mRNA …: MSKCRKTPVQQLASPASFSPDILADIFELFAKNFSYGKPLNNEWQLPDPSEIFTCDHTELNAFLDLKNSLNEVKNLLSDKKLDEWHEHTAFTNKAGKIISHVRKSVNAELCTQAWCKFHEILCSFPLIPQEAFQNGKLNSLHLCEAPGAFIASLNHYLKSHRFPCHWSWVANTLNPYHEANDDLMMIMDDRLIANTLHWWYFGPDNTGDIMTLKFLTGLQNFISSMATVHLVTADGSFDCQGNPGEQEALVSSLHYCEVVTALTTLGNGGSFVLKMFTMFEHCSINLMYLLNCCFDQVHVFKPATSKAGNSEVYVVCLHYKGREAIHPLLSKMTLNFGTEMKRKALFPHHVIPDSFLKRHEECCVFFHKYQLETISENIRLFECMGKAEQEKLNNLRDCAIQYFMQKFQLKHLSRNNWLVKKSSIGCSTNTKWFGQRNKYFKTYNERKMLEALSWKDKVAKGYFNSWAEEHGVYHPGQSSILEGTASNLECHLWHILEGKKLPKVKCSPFCNGEILKTLNEAIEKSLGGAFNLDSKFRPKQQYSCSCHVFSEELIFSELCSLTECLQDEQVVVPSNQIKCLLVGFSTLRNIKMHIPLEVRLLESAELTTFSCSLLHDGDPTYQRLFLDCLLHSLRELHTGDVMILPVLSCFTRFMAGLIFVLHSCFRFITFVCPTSSDPLRTCAVLLCVGYQDLPNPVFRYLQSVNELLSTLLNSDSPQQVLQFVPMEVLLKGALLDFLWDLNAAIAKRHLHFIIQREREEIINSLQLQN	0.09 log base 2	0.17 log base 2	0.13 log base 2	2.92 log base 2	3.09 log base 2
EWSR1 (protein, UniProt Q01844 1-656, looked up) RNA-binding protein EWS: MASTDYSTYSQAAAQQGYSAYTAQPTQGYAQTTQAYGQQSYGTYGQPTDVSYTQAQTTATYGQTAYATSYGQPPTGYTTPTAPQAYSQPVQGYGTGAYDTTTATVTTTQASYAAQSAYGTQPAYPAYGQQPAATAPTRPQDGNKPTETSQPQSSTGGYNQPSLGYGQSNYSYPQVPGSYPMQPVTAPPSYPPTSYSSTQPTSYDQSSYSQQNTYGQPSSYGQQSSYGQQSSYGQQPPTSYPPQTGSYSQAPSQYSQQSSSYGQQSSFRQDHPSSMGVYGQESGGFSGPGENRSMSGPDNRGRGRGGFDRGGMSRGGRGGGRGGMGSAGERGGFNKPGGPMDEGPDLDLGPPVDPDEDSDNSAIYVQGLNDSVTLDDLADFFKQCGVVKMNKRTGQPMIHIYLDKETGKPKGDATVSYEDPPTAKAAVEWFDGKDFQGSKLKVSLARKKPPMNSMRGGLPPREGRGMPPPLRGGPGGPGGPGGPMGRMGGRGGDRGGFPPRGPRGSRGNPSGGGNVQHRAGDWQCPNPGCGNQNFAWRTECNQCKAPKPEGFLPPPFPPPGGDRGRGGPGGMRGGRGGLMDRGGPGGMFRGGRGGDRGGFRGGRGMDRGGFGGGRRGGPGGPPGPLMEQMGGRRGGRGGPGKMDKGEHRQERRDRPY	−0.11 log base 2	0.38 log base 2	0.14 log base 2	2.09 log base 2	2.82 log base 2

The next lines start with results.

Relative to UNC0638 UNC Heavy [1]	Relative to UNC0638 UNC Light [1]	Relative to UNC0638 Average [1]	Molecule	3xMBT/D355N UNC Heavy [2]	3xMBT/D355N UNC Light [2]
–	0.13 log base 2	0.13 log base 2	UBA1 (protein, UniProt P22314 2-1058, looked up) Ubiquitin-like …: SSSPLSKKRRVSGPDPKPGSNCSPAQSVLSEVPSVPTNGMAKNGSEADIDEGLYSRQLYVLGHEAMKRLQTSSVLVSGLRGLGVEIAKNIILGGVKAVTLHDQGTAQWADLSSQFYLREEDIGKNRAEVSQPRLAELNSYVPVTAYTGPLVEDFLSGFQVVVLTNTPLEDQLRVGEFCHNRGIKLVVADTRGLFGQLFCDFGEEMILTDSNGEQPLSAMVSMVTKDNPGVVTCLDEARHGFESGDFVSFSEVQGMVELNGNQPMEIKVLGPYTFSICDTSNFSDYIRGGIVSQVKVPKKISFKSLVASLAEPDFVVTDFAKFSRPAQLHIGFQALHQFCAQHGRPPRPRNEEDAAELVALAQAVNARALPAVQQNNLDEDLIRKLAYVAAGDLAPINAFIGGLAAQEVMKACSGKFMPIMQWLYFDALECLPEDKEVLTEDKCLQRQNRYDGQVAVFGSDLQEKLGKQKYFLVGAGAIGCELLKNFAMIGLGCGEGGEIIVTDMDTIEKSNLNRQFLFRPWDVTKLKSDTAAAAVRQMNPHIRVTSHQNRVGPDTERIYDDDFFQNLDGVANALDNVDARMYMDRRCVYYRKPLLESGTLGTKGNVQVVIPFLTESYSSSQDPPEKSIPICTLKNFPNAIEHTLQWARDEFEGLFKQPAENVNQYLTDPKFVERTLRLAGTQPLEVLEAVQRSLVLQRPQTWADCVTWACHHWHTQYSNNIRQLLHNFPPDQLTSSGAPFWSGPKRCPHPLTFDVNNPLHLDYVMAAANLFAQTYGLTGSQDRAAVATFLQSVQVPEFTPKSGVKIHVSDQELQSANASVDDSRLEELKATLPSPDKLPGFKMYPIDFEKDDDSNFHMDFIVAASNLRAENYDIPSADRHKSKLIAGKIIPAIATTTAAVVGLVCLELYKVVQGHRQLDSYKNGFLNLALPFFGFSEPLAAPRHQYYNQEWTLWDRFEVQGLQPNGEEMTLKQFLDYFKTEHKLEITMLSQGVSMLYSFFMPAAKLKERLDQPMTEIVSRVSKRKLGRHVRALVLELCCNDESGEDVEVPYVRYTIR	0.55 log base 2	2.51 log base 2
0.28 log base 2	−0.02 log base 2	0.13 log base 2	HNRNPF (protein, UniProt P52597 1-415, looked up) Heterogeneous nuclear …: MMLGPEGGEGFVVKLRGLPWSCSVEDVQNFLSDCTIHDGAAGVHFIYTREGRQSGEAFVELGSEDDVKMALKKDRESMGHRYIEVFKSHRTEMDWVLKHSGPNSADSANDGFVRLRGLPFGCTKEEIVQFFSGLEIVPNGITLPVDPEGKITGEAFVQFASQELAEKALGKHKERIGHRYIEVFKSSQEEVRSYSDPPLKFMSVQRPGPYDRPGTARRYIGIVKQAGLERMRPGAYSTGYGGYEEYSGLSDGYGFTTDLFGRDLSYCLSGMYDHRYGDSEFTVQSTTGHCVHMRGLPYKATENDIYNFFSPLNPVRVHIEIGPDGRVTGEADVEFATHEEAVAAMSKDRANMQHRYIELFLNSTTGASNGAYSSQVMQGMGVSAAQATYSGLESQSVSGCYGAGYSGQNSMGGYD	1.66 log base 2	2.25 log base 2
